Results taken from patent US20250388673A1 (HIFIBIO, published 2025).

T1: human BTLA (human, UniProt Q7Z6A9 31-289)
T1 construct: also called hBTLA; HEK293.hBTLA
T1 sequence: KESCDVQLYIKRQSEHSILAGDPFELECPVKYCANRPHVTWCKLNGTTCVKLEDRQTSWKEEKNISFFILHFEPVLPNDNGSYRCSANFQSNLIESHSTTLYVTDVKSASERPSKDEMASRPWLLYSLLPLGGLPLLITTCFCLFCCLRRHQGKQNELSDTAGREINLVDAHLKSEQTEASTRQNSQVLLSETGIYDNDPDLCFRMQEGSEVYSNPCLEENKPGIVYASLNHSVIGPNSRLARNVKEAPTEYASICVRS

B1: HFB6-4hz9-hG1 (antibody, human IgG1, V domains shown)
VH: EVQLVESGGGLVQPGRSLRLSCTTSGFNIKDTYIHWFRQAPGKGLEWVGRNDPANGNTKYTASFKGRATISADGSKSIAYLQMNSLKTEDTAVYYCASYEGYYERFGYWGQGTLVTVSS
VL: DVVMTQSPLSLPVTLGQPASISCRSSQSLLDRDGKTYLNWLQQRPGQSPRRLIYLVSKRDSGVPDRFSGSGSGTDFTLKISRVEAEDVGVYYCWQDTHFPYTFGQGTKLEIK
notes: Humanized variant of HFB6-4, human IgG1 (hG1)
B2: HFB6-4hz10-hG1 (antibody, human IgG1, V domains shown)
VH: EVQLVESGGGLVQPGGSLKLSCATSGFNIKDTYIHWVRQASGKGLEWIGRNDPANGNTKYAASFKGRATISADDSKNTAYLQLNSLKTEDTAVYYCASYEGYYERFGYWGQGTLVTVSS
VL: DVVMTQSPLSLPVTLGQPASISCRSSQSLLDRDGKTYLNWLQQRPGQSPRRLIYLVSKRDSGVPDRFSGSGSGTDFTLKISRVEAEDVGVYYCWQDTHFPYTFGQGTKLEIK
notes: as for B1
B3: HFB6-5hz16-hG1 (antibody, human IgG1, V domains shown)
VH: EVQLVESGGGLVQPGGSLKLSCAASGVNIKDTYMYWVRQASGKGLEWIGRIDPANGYTRYAASFKGRATISADDSKNTAYLQLNSLKTEDTAVYYCAVYDGYYESFDVWGQGTLVTVSS
VL: EIVLTQSPGTLSVSPGERATISCRSSQSLLDSDGKTYLNWLQQKPGQAPRRLIYLVSKRDTGVPDRFSGSGSGTDFTLTISRVEPEDFAVYYCWQGTLFPRTFGQGTKLEIK
notes: Humanized variant of HFB6-5, human IgG1 (hG1)
B4: HFB6-5hz17-hG1 (antibody, human IgG1, V domains shown)
VH: QVQLQESGPGLVKPSGTLSLTCAASGVNIKDTYMYWVRQPPGKGLEWIGRIDPANGYTRYNPSFKSRATISADKSKNQASLKLSSVTAADTAVYYCAVYDGYYESFDVWGQGTLVTVSS
VL: EIVLTQSPGTLSVSPGERATISCRSSQSLLDSDGKTYLNWLQQKPGQAPRRLIYLVSKRDTGVPDRFSGSGSGTDFTLTISRVEPEDFAVYYCWQGTLFPRTFGQGTKLEIK
notes: as for B3
B5: HFB6-5hz21-hG1 (antibody, human IgG1, V domains shown)
VH: EVQLVESGGGLVQPGRSLRLSCTASGVNIKDTYMYWVRQAPGKGLEWVGRIDPANGYTRYTASFKGRATISADGSKSIAYLQMNSLKTEDTAVYYCAVYDGYYESFDVWGQGTLVTVSS
VL: DIVMTQSPDSLAVSLGERATINCKSSQSLLDSDGKTYLNWLQQKPGQSPKRLIYLVSKLDSGVPDRFSGSGSGTDFTLTISSVQAEDLAVYYCWQGTLFPRTFGQGTKLEIK
notes: as for B3
B6: HFB6-5hz18-hG1 (antibody, human IgG1, V domains shown)
VH: EVQLVQSGAEVKKPGESLKISCKGSGVNIKDTYMYWVRQMPGKGLEWIGRIDPANGYTRYSPSFQGQVTISADKSISTAYLQLSSLKASDTAMYYCAVYDGYYESFDVWGQGTLVTVSS
VL: EIVLTQSPGTLSVSPGERATISCRSSQSLLDSDGKTYLNWLQQKPGQAPRRLIYLVSKRDTGVPDRFSGSGSGTDFTLTISRVEPEDFAVYYCWQGTLFPRTFGQGTKLEIK
notes: as for B3
B7: HFB6-5hz22-hG1 (antibody, human IgG1, V domains shown)
VH: EVQLVESGGGLVQPGGSLKLSCAASGVNIKDTYMYWVRQASGKGLEWIGRIDPANGYTRYAASFKGRATISADDSKNTAYLQLNSLKTEDTAVYYCAVYDGYYESFDVWGQGTLVTVSS
VL: DIVMTQSPDSLAVSLGERATINCKSSQSLLDSDGKTYLNWLQQKPGQSPKRLIYLVSKLDSGVPDRFSGSGSGTDFTLTISSVQAEDLAVYYCWQGTLFPRTFGQGTKLEIK
notes: as for B3
B8: HFB6-5-hG1 (human-mouse chimeric monoclonal antibody) (antibody, human IgG1, kappa, V domains shown)
VH: EVQLQQSGAELVKPGASVKLSCTASGVNIKDTYMYWVKQRPEQGLEWIGRIDPANGYTRYDPKFQGKATITADTSSNTAHLQLSSLTSEDAAVYYCAVYDGYYESFDVWGAGTTVTVSS
VL: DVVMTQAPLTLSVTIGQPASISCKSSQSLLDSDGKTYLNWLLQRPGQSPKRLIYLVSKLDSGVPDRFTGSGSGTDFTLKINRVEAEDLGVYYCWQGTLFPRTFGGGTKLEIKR
notes: also called HFB-5; HFB6-5 parental antibody
B9: HFB6-4hz1-hG1 (antibody, V domains shown)
VH: QVQLVQSGAEVKKPGSSVKVSCKTSGFNIKDTYIHWVRQAPGQGLEWIGRNDPANGNTKYAQKFQGRATITADESTSTAYMELSSLRSEDTAVYYCASYEGYYERFGYWGQGTLVTVSS
VL: DIQMTQSPSSLSASVGDRVTITCRSSQSLLDRDGKSYLNWLQQKPGKAPKRLIYLVSKLDSGVPSRFSGSGSGTDFTLTISSLQPEDFATYYCWQDTHFPYTFGQGTKLEIK
notes: Humanized variant of HFB6-4, human IgG1 (hG1); Only VH and VL are tied to the name
B10: HFB6-4hz6-hG1 (antibody, human IgG1, V domains shown)
VH: EVQLVQSGAEVKKPGESLKISCKTSGFNIKDTYIHWVRQMPGKGLEWIGRNDPANGNTKYSPSFQGQVTISADKSISTAYLQLSSLKASDTAMYYCASYEGYYERFGYWGQGTLVTVSS
VL: DIQMTQSPSSLSASVGDRVTITCRSSQSLLDRDGKSYLNWLQQKPGKAPKRLIYLVSKLDSGVPSRFSGSGSGTDFTLTISSLQPEDFATYYCWQDTHFPYTFGQGTKLEIK
notes: as for B1
B11: HFB6-4hz3-hG1 (antibody, human IgG1, V domains shown)
VH: EVQLVESGGGLVQPGRSLRLSCTTSGFNIKDTYIHWFRQAPGKGLEWVGRNDPANGNTKYTASFKGRATISADGSKSIAYLQMNSLKTEDTAVYYCASYEGYYERFGYWGQGTLVTVSS
VL: DIQMTQSPSSLSASVGDRVTITCRSSQSLLDRDGKSYLNWLQQKPGKAPKRLIYLVSKLDSGVPSRFSGSGSGTDFTLTISSLQPEDFATYYCWQDTHFPYTFGQGTKLEIK
notes: as for B1
B12: HFB6-4hz7-hG1 (antibody, human IgG1, V domains shown)
VH: QVQLVQSGAEVKKPGSSVKVSCKTSGFNIKDTYIHWVRQAPGQGLEWIGRNDPANGNTKYAQKFQGRATITADESTSTAYMELSSLRSEDTAVYYCASYEGYYERFGYWGQGTLVTVSS
VL: DVVMTQSPLSLPVTLGQPASISCRSSQSLLDRDGKTYLNWLQQRPGQSPRRLIYLVSKRDSGVPDRFSGSGSGTDFTLKISRVEAEDVGVYYCWQDTHFPYTFGQGTKLEIK
notes: as for B1
B13: HFB6-4hz5-hG1 (antibody, human IgG1, V domains shown)
VH: QVQLQESGPGLVKPSGTLSLTCAVSGFNIKDTYIHWVRQPPGKGLEWIGRNDPANGNTKYNPSFKSRATISADKSKNQASLKLSSVTAADTAVYYCASYEGYYERFGYWGQGTLVTVSS
VL: DIQMTQSPSSLSASVGDRVTITCRSSQSLLDRDGKSYLNWLQQKPGKAPKRLIYLVSKLDSGVPSRFSGSGSGTDFTLTISSLQPEDFATYYCWQDTHFPYTFGQGTKLEIK
notes: as for B1
B14: HFB6-4hz4-hG1 (antibody, human IgG1, V domains shown)
VH: EVQLVESGGGLVQPGGSLKLSCATSGFNIKDTYIHWVRQASGKGLEWIGRNDPANGNTKYAASFKGRATISADDSKNTAYLQLNSLKTEDTAVYYCASYEGYYERFGYWGQGTLVTVSS
VL: DIQMTQSPSSLSASVGDRVTITCRSSQSLLDRDGKSYLNWLQQKPGKAPKRLIYLVSKLDSGVPSRFSGSGSGTDFTLTISSLQPEDFATYYCWQDTHFPYTFGQGTKLEIK
notes: as for B1
B15: HFB6-4hz8-hG1 (antibody, human IgG1, V domains shown)
VH: QVQLVQSGAEVKKPGASVKVSCKTSGFNIKDTYIHWVRQAPGQGLEWIGRNDPANGNTKYAQKFQGRVTMTADTSTSTVYMELSSLRSEDTAVYYCASYEGYYERFGYWGQGTLVTVSS
VL: DVVMTQSPLSLPVTLGQPASISCRSSQSLLDRDGKTYLNWLQQRPGQSPRRLIYLVSKRDSGVPDRFSGSGSGTDFTLKISRVEAEDVGVYYCWQDTHFPYTFGQGTKLEIK
notes: as for B1
B16: HFB6-4hz2-hG1 (antibody, human IgG1, V domains shown)
VH: QVQLVQSGAEVKKPGASVKVSCKTSGFNIKDTYIHWVRQAPGQGLEWIGRNDPANGNTKYAQKFQGRVTMTADTSTSTVYMELSSLRSEDTAVYYCASYEGYYERFGYWGQGTLVTVSS
VL: DIQMTQSPSSLSASVGDRVTITCRSSQSLLDRDGKSYLNWLQQKPGKAPKRLIYLVSKLDSGVPSRFSGSGSGTDFTLTISSLQPEDFATYYCWQDTHFPYTFGQGTKLEIK
notes: as for B1
B17: HFB6-5hz19-hG1 (antibody, human IgG1, V domains shown)
VH: QVQLVQSGAEVKKPGSSVKVSCKASGVNIKDTYMYWVRQAPGQGLEWIGRIDPANGYARYAQKFQGRATITADESTSTAYMELSSLRSEDTAVYYCAVYDGYYESFDVWGQGTLVTVSS
VL: DIVMTQSPDSLAVSLGERATINCKSSQSLLDSDGKTYLNWLQQKPGQSPKRLIYLVSKLDSGVPDRFSGSGSGTDFTLTISSVQAEDLAVYYCWQGTLFPRTFGQGTKLEIK
notes: as for B3
B18: HFB6-5hz23-hG1 (antibody, human IgG1, V domains shown)
VH: QVQLQESGPGLVKPSGTLSLTCAASGVNIKDTYMYWVRQPPGKGLEWIGRIDPANGYTRYNPSFKSRATISADKSKNQASLKLSSVTAADTAVYYCAVYDGYYESFDVWGQGTLVTVSS
VL: DIVMTQSPDSLAVSLGERATINCKSSQSLLDSDGKTYLNWLQQKPGQSPKRLIYLVSKLDSGVPDRFSGSGSGTDFTLTISSVQAEDLAVYYCWQGTLFPRTFGQGTKLEIK
notes: as for B3
B19: HFB6-5hz24-hG1 (antibody, human IgG1, V domains shown)
VH: EVQLVQSGAEVKKPGESLKISCKGSGVNIKDTYMYWVRQMPGKGLEWIGRIDPANGYTRYSPSFQGQVTISADKSISTAYLQLSSLKASDTAMYYCAVYDGYYESFDVWGQGTLVTVSS
VL: DIVMTQSPDSLAVSLGERATINCKSSQSLLDSDGKTYLNWLQQKPGQSPKRLIYLVSKLDSGVPDRFSGSGSGTDFTLTISSVQAEDLAVYYCWQGTLFPRTFGQGTKLEIK
notes: as for B3
B20: HFB6-5hz20-hG1 (antibody, human IgG1, V domains shown)
VH: QVQLVQSGAEVKKPGASVKVSCKASGVNIKDTYMYWVRQAPGQGLEWIGRIDPANGYTRYAQKFQGRATITADTSTSTVYMELSSLRSEDTAVYYCAVYDGYYESFDVWGQGTLVTVSS
VL: DIVMTQSPDSLAVSLGERATINCKSSQSLLDSDGKTYLNWLQQKPGQSPKRLIYLVSKLDSGVPDRFSGSGSGTDFTLTISSVQAEDLAVYYCWQGTLFPRTFGQGTKLEIK
notes: as for B3

target: T1, human BTLA; assay: flow cytometry, HEK293 cells overexpressing human BTLA
Description: HEK293 cells overexpressing human BTLA and Expi293 cells overexpressing cynomolus BTLA were incubated with different concentrations of humanized anti-BTLA antibodies. Anti-BTLA antibody binding to target cells were quantified with an AF647-conjugated anti-human IgG Fc secondary antibody by flow cytometry.

Binding result, binds:
B1
B2
B3
B4
B5
B6
B7
B8
B9
B10
B11
B12
B13
B14
B15
B16
B17
B18
B19
B20
